Reference: the supplement of paper PMC9876800

Test system: peptide library, one residue held at a place counted from the S/T acceptor
Assay: relative phosphorylation of the sub-library (ratio to the mean residue at this position); higher = residue favoured
Conditions: human
In short: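 Each biotinylated degenerate peptide sub-library fixed one residue at one position around a central Ser/Thr and was incubated with a purified recombinant kinase, a human or orthologue construct, in 384-well plates. The 90 min reactions, under kinase-specific conditions, contained 50 μM peptide and 50 μM ATP spiked with γ-32P-ATP. Phosphorylation was read by phosphorimaging spots on streptavidin membranes and quantifying them by densitometry. Relative sub-library phosphorylation expresses each value as a ratio to the mean residue at that position.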

MYLK2, construct: Full length, sequence (Q9H1R3 whole entry, looked up): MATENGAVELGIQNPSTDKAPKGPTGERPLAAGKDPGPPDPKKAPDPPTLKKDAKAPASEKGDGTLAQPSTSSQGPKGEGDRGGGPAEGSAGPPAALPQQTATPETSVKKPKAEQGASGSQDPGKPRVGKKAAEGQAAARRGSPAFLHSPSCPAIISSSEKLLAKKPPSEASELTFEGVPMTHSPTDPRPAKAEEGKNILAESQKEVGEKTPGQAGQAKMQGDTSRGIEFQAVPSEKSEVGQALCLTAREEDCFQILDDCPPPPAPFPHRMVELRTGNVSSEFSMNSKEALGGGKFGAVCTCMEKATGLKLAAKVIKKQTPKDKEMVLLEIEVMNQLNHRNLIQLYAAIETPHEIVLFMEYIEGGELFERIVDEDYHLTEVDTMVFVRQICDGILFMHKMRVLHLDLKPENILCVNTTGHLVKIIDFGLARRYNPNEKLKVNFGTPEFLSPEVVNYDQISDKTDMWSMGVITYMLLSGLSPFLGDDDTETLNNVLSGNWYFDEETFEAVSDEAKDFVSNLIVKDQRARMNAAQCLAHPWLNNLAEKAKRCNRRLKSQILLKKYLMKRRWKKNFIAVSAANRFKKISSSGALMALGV
DCLK2, construct: aa1-690, sequence (Q8N568 1-690, looked up): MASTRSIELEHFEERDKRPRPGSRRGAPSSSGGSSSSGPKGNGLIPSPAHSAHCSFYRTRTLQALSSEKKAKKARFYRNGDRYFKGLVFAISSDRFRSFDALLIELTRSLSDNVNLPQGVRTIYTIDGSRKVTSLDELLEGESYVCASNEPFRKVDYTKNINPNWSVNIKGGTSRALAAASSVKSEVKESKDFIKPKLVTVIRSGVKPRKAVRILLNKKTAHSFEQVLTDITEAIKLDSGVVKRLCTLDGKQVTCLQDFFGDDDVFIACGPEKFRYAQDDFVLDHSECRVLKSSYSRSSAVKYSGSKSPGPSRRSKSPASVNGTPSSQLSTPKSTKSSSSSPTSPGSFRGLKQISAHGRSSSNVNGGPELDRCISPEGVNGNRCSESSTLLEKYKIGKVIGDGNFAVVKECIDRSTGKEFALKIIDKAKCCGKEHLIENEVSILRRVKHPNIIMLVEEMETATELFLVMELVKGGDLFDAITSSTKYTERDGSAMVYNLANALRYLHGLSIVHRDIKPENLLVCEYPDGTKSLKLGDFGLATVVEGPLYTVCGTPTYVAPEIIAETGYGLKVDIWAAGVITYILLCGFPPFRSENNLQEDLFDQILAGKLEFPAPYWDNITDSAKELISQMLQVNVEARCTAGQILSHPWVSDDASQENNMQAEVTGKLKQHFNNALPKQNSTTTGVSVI

RPS6KA4, construct: Full length (from UniProt O75676)
relative phosphorylation
Conditions	at +1	at +2	at +3	at +4	at -1	at -2	at -3	at -4	at -5
A fixed	0.665	0.804	0.781	0.843	0.745	0.911	0.769	1.08	1.06
D fixed	0.621	1.61	1.12	1.43	0.996	0.411	0.319	0.715	0.699
E fixed	0.77	1.07	1.12	1.33	0.567	0.413	0.329	0.853	0.661
F fixed	1.3	0.921	1.08	0.864	0.749	0.749	0.472	0.868	1.01
G fixed	0.547	0.65	1.03	1.1	1.11	0.775	0.465	1.15	1.06
H fixed	1.21	1.7	1.3	1.35	1.04	0.924	0.817	1.17	1.2
I fixed	1.26	0.85	0.811	0.767	0.44	0.354	0.258	0.665	0.858
K fixed	0.634	0.72	0.71	0.934	1.41	1.2	0.915	1.32	1.25
L fixed	1	0.698	0.998	0.782	0.791	0.518	0.285	0.679	1
M fixed	1.27	0.909	1.04	0.867	1.04	0.629	0.373	0.84	0.857
N fixed	0.937	1.44	0.935	1.23	1.57	0.861	0.473	1.01	0.871
P fixed	0.345	0.5	0.942	1.09	1.3	0.429	0.64	1.01	0.887
Q fixed	1.1	0.873	0.949	1.25	1.19	0.885	0.642	1.09	0.831
R fixed	0.771	0.869	0.677	0.74	1.5	6.18	8.7	1.81	1.96
V fixed	1.24	0.807	0.726	0.639	0.51	0.354	0.247	0.583	0.773
W fixed	1.89	1.39	1.62	1.07	0.898	0.748	0.738	1.13	1.19
Y fixed	1.44	1.18	1.17	0.72	1.14	0.66	0.555	1.04	0.832
pThr fixed	1.11	1.18	1.15	1.83	0.415	0.419	0.515	0.698	0.644
pTyr fixed	1.57	1.17	1.47	1.39	1.27	0.502	0.491	0.81	0.804

DCLK2, construct: aa1-690 (from UniProt Q8N568)
relative phosphorylation
Conditions	at +1	at +2	at +3	at +4	at -1	at -2	at -3	at -4	at -5
A fixed	0.573	0.702	0.791	0.84	0.731	1.26	0.798	1.03	0.816
D fixed	0.373	0.373	0.673	0.855	0.669	0.725	0.372	0.573	0.437
E fixed	0.414	0.304	0.701	0.838	0.436	1.56	0.427	0.748	0.4
F fixed	3.73	1.72	1.17	1.22	0.853	0.659	0.406	0.988	1.55
G fixed	0.532	0.412	0.887	0.922	1.31	1.08	0.589	1.11	0.76
H fixed	0.815	1.63	1.19	0.987	1.2	0.934	0.831	1	0.907
I fixed	0.918	1.35	0.815	0.917	0.522	0.437	0.33	0.885	1.1
K fixed	1.18	0.639	1.35	1.28	2.27	1.9	3.49	1.8	1.36
L fixed	0.882	1.26	1.09	1.16	0.884	0.687	0.436	0.99	1.47
M fixed	1.4	1.07	1.02	1.12	0.804	0.909	0.484	0.947	1.15
N fixed	0.77	0.49	0.91	0.93	1.16	1.1	0.581	0.784	0.649
P fixed	0.371	0.522	0.727	1.19	0.981	0.423	0.701	0.977	0.946
Q fixed	0.915	0.531	0.947	1.01	0.863	1.79	0.787	1.04	0.802
R fixed	0.903	0.554	1.37	1.05	2.06	1.65	5.46	1.32	1.44
V fixed	0.702	1.1	0.923	0.758	0.554	0.462	0.315	0.941	0.923
W fixed	1.22	1.42	1.27	1.09	0.621	0.725	0.549	0.914	1.17
Y fixed	1.3	2.91	1.17	0.846	1.09	0.695	0.447	0.942	1.12
pThr fixed	0.782	0.935	1.04	0.993	0.455	0.391	0.374	0.652	0.506
pTyr fixed	0.776	7.04	1.07	0.687	0.515	0.367	0.298	0.548	0.576

MYLK2, construct: Full length (from UniProt Q9H1R3)
relative phosphorylation
Conditions	at +1	at +2	at +3	at +4	at -1	at -2	at -3	at -4	at -5
A fixed	1.17	0.898	0.72	1.02	1	1.55	0.879	1.34	1.37
D fixed	0.541	0.852	1.08	1.07	0.654	0.423	0.467	0.847	0.683
E fixed	0.705	1.5	0.72	1.38	0.659	0.454	0.605	1.03	0.644
F fixed	0.621	1.42	1.62	0.804	0.486	0.461	0.464	0.852	0.932
G fixed	1.19	0.696	1.03	0.936	0.922	1.37	1.45	1.46	1.5
H fixed	0.988	1.02	0.825	0.938	1.49	1.08	1.02	0.942	1.1
I fixed	0.784	1.28	1.37	1.36	0.556	0.471	0.412	0.639	0.657
K fixed	1.5	0.664	0.482	0.898	1.89	1.44	2.17	1.03	1.19
L fixed	0.785	1.15	2.01	1.17	0.885	0.461	0.421	0.702	0.723
M fixed	1.27	1.06	1.13	0.925	0.891	0.512	0.474	0.836	0.739
N fixed	0.945	0.783	0.84	0.736	1.41	0.819	0.85	0.894	0.884
P fixed	0.323	0.785	0.8	1.36	1.37	1	1.35	1.53	1.62
Q fixed	1.81	0.757	0.557	0.973	1.35	0.806	0.894	1.01	0.834
R fixed	1.68	0.575	0.525	0.58	1.13	4.52	3.77	1.28	0.929
V fixed	1.07	1.21	0.919	1.23	0.688	0.558	0.477	0.753	0.853
W fixed	0.902	1.31	1.6	0.903	0.658	0.527	0.691	1.01	1.25
Y fixed	0.721	1.04	0.78	0.715	0.958	0.529	0.6	0.843	1.08
pThr fixed	1.71	1.59	0.794	1.43	0.612	0.958	0.847	1.05	1.06
pTyr fixed	0.726	1.47	0.977	1.37	0.886	0.674	0.819	0.934	0.84

PIM3, construct: Full length (from UniProt Q86V86)
relative phosphorylation
Conditions	at +1	at +2	at +3	at +4	at -1	at -2	at -3	at -4	at -5
A fixed	1.07	0.944	0.735	0.954	0.952	0.672	0.676	0.984	1.16
D fixed	0.918	0.986	1.47	1.17	0.769	0.637	0.718	1.07	0.989
E fixed	1.44	0.858	1.26	1.11	0.996	0.621	0.674	1.14	0.697
F fixed	0.469	0.684	0.673	0.752	0.608	0.761	0.393	0.62	0.693
G fixed	3.27	0.888	1.21	1.37	0.819	0.746	0.848	1.45	1.25
H fixed	0.811	1.84	1.2	1.03	1.02	2.91	0.985	1.1	1.32
I fixed	0.715	0.499	0.602	0.728	0.454	0.427	0.249	0.628	0.533
K fixed	0.959	1.23	1.24	1.09	1.78	1.14	1.64	1.24	1.72
L fixed	0.571	0.624	0.587	0.823	0.693	0.473	0.309	0.567	0.52
M fixed	0.84	0.648	0.733	0.827	0.713	0.566	0.403	0.992	0.539
N fixed	1.21	1.57	1.24	1.16	1.46	1.23	0.74	0.975	0.869
P fixed	0.416	1.11	0.828	1.47	2.12	1.1	1.33	1.42	1
Q fixed	1.33	1.16	1.19	1.14	1.46	1.07	0.856	1.08	0.926
R fixed	0.955	1.44	1.53	0.79	1	2.1	5.83	1.57	2.42
V fixed	0.828	0.7	0.69	0.859	0.697	0.456	0.372	0.657	0.714
W fixed	0.553	0.981	0.931	0.934	0.529	0.905	0.575	0.775	0.961
Y fixed	0.634	0.824	0.87	0.795	0.926	1.19	0.409	0.744	0.688
pThr fixed	1.27	1.04	1.04	1.68	0.585	0.694	0.78	0.779	0.67
pTyr fixed	0.783	0.886	1.11	1.02	1.21	0.975	0.904	1.03	1.03
